{"source": "patent US20110300138A1", "about": "(published 2011)", "molecules": {"B1": {"name": "5C9 IgG (antibody, from another filing, V domains shown)", "VH": "EVQLVESGGGLIQPGGSLRLSCAASGFTVSSNYMSWVRQAPGKGLEWVSVTYSGGSTSYADSVKGRFTISRDNSKNTLYLQMNSLRAEDTAVYYCARGGRYCSSISCYARSGCDYWGQGTLVTVSS", "VL": "AIQMTQSPSSLSASVGDRVTITCRASQSISNYLNWYQQKPGKAPKLLIYAASSLQSGVPSRFSGSGSGTDFTLTISSLQPEDFATYYCQQSYSSPSTTFGQGTKLEIK"}}, "key": {"[1]": {"target": "human thyroid stimulating hormone receptor (TSHR), full length (human) (UniProt P16473)", "test": "125I-K1-70 Fab (competitor) binding to TSHR coated tubes; negative control MAb 0.01 µg/mL in assay buffer"}, "[2]": {"target": "human TSH receptor (full length) coated on ELISA plate wells (human) (UniProt P16473)", "test": "TSH-biotin binding inhibition ELISA, TSHR coated wells; 100 µg/mL in assay buffer; negative control MAb"}, "[3]": {"target": "TSHR (thyroid stimulating hormone receptor), full length human (human) (UniProt P16473)", "test": "negative control; competitor ^125I-K1-70 IgG, TSHR coated tubes; 0.01 µg/mL in assay buffer"}, "[4]": {"target": "TSHR (thyroid stimulating hormone receptor), full length human (human) (UniProt P16473)", "test": "negative control; competitor ^125I-K1-70 IgG, TSHR coated tubes; 0.1 µg/mL in assay buffer"}, "[5]": {"target": "TSH receptor (TSHR) coated on tubes (human) (UniProt P16473)", "test": "inhibition of 125I-K1-70 IgG binding to TSHR coated tubes; negative control 0.001 µg/mL in assay buffer"}, "[6]": {"target": "human thyroid stimulating hormone receptor (TSHR), full length (human) (UniProt P16473)", "test": "125I-K1-70 Fab (competitor) binding to TSHR coated tubes; negative control MAb 100 µg/mL in assay buffer"}, "[7]": {"target": "TSHR (thyroid stimulating hormone receptor), full length human (human) (UniProt P16473)", "test": "negative control; competitor ^125I-K1-70 IgG, TSHR coated tubes; 10 µg/mL in assay buffer"}, "[8]": {"target": "wild type TSHR (human TSH receptor) expressed in CHO cells (human) (UniProt P16473)", "test": "cell-based or functional assay"}, "[9]": {"target": "TSHR with Arg109 mutated to Ala, expressed in CHO cells (human) (UniProt P16473)", "test": "cell-based or functional assay"}, "[10]": {"target": "TSH receptor (TSHR), full length human, coated on tubes (human) (UniProt P16473)", "test": "inhibition of 125I-K1-18 IgG binding to TSHR coated tubes; competitor 125I-K1-18 IgG; sample at 1 µg/mL in assay buffer"}, "[11]": {"target": "TSHR (thyroid stimulating hormone receptor), full length human (human) (UniProt P16473)", "test": "competitor ^125I-K1-70 IgG, TSHR coated tubes; 10 µg/mL in assay buffer"}, "[12]": {"target": "TSHR (full length) coated on tubes (human) (UniProt P16473)", "test": "inhibition of 125I-K1-18 Fab (competitor) binding to TSHR coated tubes; test sample 10 µg/mL in assay buffer"}, "[13]": {"target": "TSHR (full length) coated on tubes (human) (UniProt P16473)", "test": "inhibition of 125I-K1-18 Fab (competitor) binding to TSHR coated tubes; test sample 0.1 µg/mL in assay buffer"}, "[14]": {"target": "TSHR (full length) coated on tubes (human) (UniProt P16473)", "test": "inhibition of 125I-K1-18 Fab (competitor) binding to TSHR coated tubes; test sample 10 µg/mL in HBD serum"}, "[15]": {"target": "TSH receptor (TSHR), full length human, coated on tubes (human) (UniProt P16473)", "test": "inhibition of 125I-K1-18 IgG binding to TSHR coated tubes; competitor 125I-K1-18 IgG; sample at 1 µg/mL in HBD serum"}, "[16]": {"target": "TSH receptor (TSHR), full length human, coated on tubes (human) (UniProt P16473)", "test": "inhibition of 125I-TSH binding to TSHR coated tubes; 100 µg/mL, diluted in assay buffer"}, "[17]": {"target": "thyroid stimulating hormone receptor (full length human TSHR) (human) (UniProt P16473)", "test": "ELISA: inhibition of M22 Fab-peroxidase (competitor) binding to TSHR coated wells; 0.1 µg/mL, diluted in HBD serum pool"}, "[18]": {"target": "thyroid stimulating hormone receptor (full length human TSHR) (human) (UniProt P16473)", "test": "ELISA: inhibition of M22 Fab-peroxidase (competitor) binding to TSHR coated wells; 1 µg/mL, diluted in assay buffer"}, "[19]": {"target": "thyroid stimulating hormone receptor (full length human TSHR) (human) (UniProt P16473)", "test": "ELISA, inhibition of TSH-biotin binding to TSHR coated wells; 0.1 µg/mL, diluted in assay buffer"}, "[20]": {"target": "thyroid stimulating hormone receptor (TSHR), full length, coated on tubes (human) (UniProt P16473)", "test": "inhibition of 125I-TSH binding, TSHR coated tubes; antibody 0.01 µg/mL in assay buffer; mean of duplicate"}, "[21]": {"target": "TSH receptor (TSHR), full length human, coated on tubes (human) (UniProt P16473)", "test": "inhibition of 125I-TSH binding to TSHR coated tubes; 10 µg/mL, diluted in HBD serum pool"}, "[22]": {"target": "thyroid stimulating hormone receptor (TSHR), full length, coated on tubes (human) (UniProt P16473)", "test": "inhibition of 125I-TSH binding, TSHR coated tubes; antibody 0.1 µg/mL in HBD serum pool"}, "[23]": {"target": "thyroid stimulating hormone receptor (full length human TSHR) (human) (UniProt P16473)", "test": "ELISA: inhibition of M22 Fab-peroxidase (competitor) binding to TSHR coated wells; 0.01 µg/mL, diluted in HBD serum pool"}, "[24]": {"target": "TSH receptor (TSHR), full length human, coated on tubes (human) (UniProt P16473)", "test": "inhibition of 125I-TSH binding to TSHR coated tubes; 0.01 µg/mL, diluted in HBD serum pool"}, "[25]": {"target": "TSH receptor (TSHR), full length human, coated on tubes (human) (UniProt P16473)", "test": "inhibition of 125I-K1-18 IgG (competitor) binding to TSHR coated tubes; test sample at 1 µg/mL in HBD serum pool; mean of duplicate"}}}
{"molecule": "5B3 IgG (antibody)", "values": [{"measurement": "Inhibition of binding (%)", "setting": "[1]", "result": -1.7, "unit": "%"}, {"measurement": "% inhibition of TSH-biotin binding", "setting": "[2]", "result": 8.3, "unit": "%"}, {"measurement": "Inhibition of binding (%)", "setting": "[3]", "result": -3.6, "unit": "%"}, {"measurement": "Inhibition of binding (%)", "setting": "[4]", "result": -1.2, "unit": "%"}, {"measurement": "Inhibition of binding (%)", "setting": "[5]", "result": -1.5, "unit": "%"}, {"measurement": "Inhibition of binding (%)", "setting": "[6]", "result": 1.4, "unit": "%"}, {"measurement": "Inhibition of binding (%)", "setting": "[7]", "result": 2.3, "unit": "%"}]}
{"molecule": "TSH (ligand)", "values": [{"measurement": "Cyclic AMP produced, wild type TSHR, TSH 0.01 ng/mL", "setting": "[8]", "result": 2.74, "unit": "pmol/mL"}, {"measurement": "Cyclic AMP produced, wild type TSHR, TSH 0.03 ng/mL", "setting": "[8]", "result": 4.24, "unit": "pmol/mL"}, {"measurement": "Cyclic AMP produced, wild type TSHR, TSH 0.1 ng/mL", "setting": "[8]", "result": 9.39, "unit": "pmol/mL"}, {"measurement": "Cyclic AMP produced, wild type TSHR, TSH 0.3 ng/mL", "setting": "[8]", "result": 39.6, "unit": "pmol/mL"}, {"measurement": "Cyclic AMP produced, wild type TSHR, TSH 1 ng/mL", "setting": "[8]", "result": 61.2, "unit": "pmol/mL"}, {"measurement": "Cyclic AMP produced, wild type TSHR, TSH 3 ng/mL", "setting": "[8]", "result": 70.6, "unit": "pmol/mL"}, {"measurement": "Cyclic AMP produced, mutated TSHR, TSH 0.01 ng/mL", "setting": "[9]", "result": 3.15, "unit": "pmol/mL"}, {"measurement": "Cyclic AMP produced, mutated TSHR, TSH 0.03 ng/mL", "setting": "[9]", "result": 4.92, "unit": "pmol/mL"}, {"measurement": "Cyclic AMP produced, mutated TSHR, TSH 0.1 ng/mL", "setting": "[9]", "result": 8.39, "unit": "pmol/mL"}, {"measurement": "Cyclic AMP produced, mutated TSHR, TSH 0.3 ng/mL", "setting": "[9]", "result": 39.2, "unit": "pmol/mL"}, {"measurement": "Cyclic AMP produced, mutated TSHR, TSH 1 ng/mL", "setting": "[9]", "result": 43.8, "unit": "pmol/mL"}, {"measurement": "Cyclic AMP produced, mutated TSHR, TSH 3 ng/mL", "setting": "[9]", "result": 55.2, "unit": "pmol/mL"}, {"measurement": "Mutated/Wild type (%) of cyclic AMP produced, TSH 0.01 ng/mL", "setting": "[9]", "result": 115, "unit": "%"}, {"measurement": "Mutated/Wild type (%) of cyclic AMP produced, TSH 0.03 ng/mL", "setting": "[9]", "result": 116, "unit": "%"}, {"measurement": "Mutated/Wild type (%) of cyclic AMP produced, TSH 0.1 ng/mL", "setting": "[9]", "result": 89, "unit": "%"}, {"measurement": "Mutated/Wild type (%) of cyclic AMP produced, TSH 0.3 ng/mL", "setting": "[9]", "result": 99, "unit": "%"}, {"measurement": "Mutated/Wild type (%) of cyclic AMP produced, TSH 1 ng/mL", "setting": "[9]", "result": 72, "unit": "%"}, {"measurement": "Mutated/wild type (%) of cyclic AMP produced; TSH 3 ng/mL", "setting": "[9]", "result": 78, "unit": "%"}]}
{"molecule": "9D33 IgG (antibody)", "values": [{"measurement": "Inhibition of binding (%)", "setting": "[10]", "result": 63, "unit": "%"}, {"measurement": "Inhibition of binding (%)", "setting": "[11]", "result": 41.7, "unit": "%"}, {"measurement": "Inhibition of binding (%)", "setting": "[12]", "result": 69.5, "unit": "%"}, {"measurement": "Inhibition of binding (%)", "setting": "[13]", "result": 48.6, "unit": "%"}, {"measurement": "Inhibition of binding (%)", "setting": "[14]", "result": 73.9, "unit": "%"}, {"measurement": "Inhibition of binding (%)", "setting": "[15]", "result": 62.1, "unit": "%"}]}
{"molecule": "B1", "values": [{"measurement": "Inhibition of binding (%)", "setting": "[16]", "result": 92.5, "unit": "%"}, {"measurement": "Inhibition of binding (%)", "setting": "[17]", "result": 6.3, "unit": "%"}, {"measurement": "Inhibition of binding (%)", "setting": "[18]", "result": 12.1, "unit": "%"}, {"measurement": "Inhibition of binding (%)", "setting": "[19]", "result": 26.1, "unit": "%"}, {"measurement": "Inhibition of binding (%)", "setting": "[20]", "result": 15.9, "unit": "%"}, {"measurement": "Inhibition of binding (%)", "setting": "[21]", "result": 39.9, "unit": "%"}, {"measurement": "Inhibition of binding (%)", "setting": "[22]", "result": 16.2, "unit": "%"}, {"measurement": "Inhibition of binding (%)", "setting": "[23]", "result": 0.9, "unit": "%"}, {"measurement": "Inhibition of binding (%)", "setting": "[24]", "result": -5.5, "unit": "%"}, {"measurement": "Inhibition of binding (%)", "setting": "[25]", "result": 26.8, "unit": "%"}]}
